Positions count from the first letter of the chain named. Values belong to the binder of their own block, whether it stands above or below them.
What was measured:
[1] = biological target: HLA-A*02:01_… (HLA-PEPTIDE target G8), soluble (human, enzymatically biotinylated (BirA) for screening and BLI); experiment: BLI (Octet), biotinylated pHLA on streptavidin sensor, Fab in solution, 1:1 model
[2] = biological target: HLA-B*35:01_… (HLA-PEPTIDE target G5), soluble (human, enzymatically biotinylated (BirA)); experiment: scFv PPE ELISA
[3] = biological target: HLA-A*01:01_… (HLA-PEPTIDE target G10), soluble (human, enzymatically biotinylated (BirA)); experiment: BLI (Octet), biotinylated pHLA on streptavidin sensor, Fab in solution, 1:1 model

B1: Fab clone R3G8-P2C10 (Fab, V domains shown)
VH: QVQLVQSGAEVKKPGASVKVSCKASGYTFTSYYMHWVRQAPGQGLEWMGWINPYSGGTNYAQKFQGRVTMTRDTSTSTVYMELSSLRSEDTAVYYCAKGGIYYGSGSYPSWGQGTLVTVSS
VL: DIQMTQSPSSLSASVGDRVTITCRASQDVSTWLAWYQQKPGKAPKLLIYAASSLQSGVPSRFSGSGSGTDFTLTISSLQPEDFATYYCQQSHSTPQTFGQGTKVEIK
notes: Fab made in HEK293
- Kd [1]: 17.7 nM
- koff [1]: 0.0013 s⁻¹
- kon [1]: 75000 M⁻¹ s⁻¹

B3: Fab clone G8-P1C11 (Fab, V domains shown)
VH: QVQLVQSGAEVKKPGASVKVSCKASGGTLSSYPINWVRQAPGQGLEWMGWISTYSGHADYAQKLQGRVTMTRDTSTSTVYMELSSLRSEDTAVYYCARSYDYGDYLNFDYWGQGTLVTVSS
VL: B1 VL with R24Q, V29I, T31N, W32Y, A34N, H92Y, T94I, Q96P, Q100G, E105D
notes: Fab made in HEK293; also called R3G8-P1C11
- Kd [1]: 178 nM
- koff [1]: 0.0338 s⁻¹
- kon [1]: 190000 M⁻¹ s⁻¹

B6: Fab clone R3G8-P2E04 (Fab, V domains shown)
VH: QVQLVQSGAEVKKPGSSVKVSCKASGGTFSSYGVSWVRQAPGQGLEWMGWISPYSGNTDYAQKFQGRVTITADESTSTAYMELSSLRSEDTAVYYCARGLYYMDVWGKGTTVTVSS
VL: DIQMTQSPSSLSASVGDRVTITCRASQSISSWLAWYQQKPGKAPKLLIYDASNLETGVPSRFSGSGSGTDFTLTISSLQPEDFATYYCQQSYSTPLTFGGGTKLEIK
notes: Fab made in HEK293
- Kd [1]: 286 nM
- koff [1]: 0.0789 s⁻¹
- kon [1]: 545000 M⁻¹ s⁻¹

B7: Fab clone R3G10-P1B07 (Fab, V domains shown)
VH: QVQLVQSGAEVKKPGASVKVSCKASGYTFTSYYMHWVRQAPGQGLEWMGIIHPGGGTTSYAQKFQGRVTMTRDTSTSTVYMELSSLRSEDTAVYYCARDKVYGDGFDPWGQGTLVTVSS
VL: DIQMTQSPSSLSASVGDRVTITCRASQSISRWLAWYQQKPGKAPKLLIFDASRLQSGVPSRFSGSGSGTDFTLTISSLQPEDFATYYCQQAEAFPYTFGQGTKVEIK
notes: Fab made in HEK293
- Kd [3]: 37.5 nM
- koff [3]: 0.00615 s⁻¹
- kon [3]: 165000 M⁻¹ s⁻¹

Results, then the binder that gave them:

- fold selective binding, target pHLA vs minipool of negative control pHLAs [2]: ≥ 3 fold
B2: scFv G5-P3G08 (scFv, V domains shown)
VH: QVQLVQSGAEVKKPGASVKVSCKASGYIFRNYPMHWVRQAPGQGLEWMGWINPDSGGTKYAQKFQGRVTMTRDTSTSTVYMELSSLRSEDTAVYYCARDNGVGVDYWGQGTLVTVSS
VL: B1 VL with D28G, V29I, T31N, W32Y, H92Y, S93I, Q96Y, V104L
notes: scFv

- Kd [3]: 428 nM
- koff [3]: 0.111 s⁻¹
- kon [3]: 477000 M⁻¹ s⁻¹
B4: Fab clone R3G10-P4E07 (Fab, V domains shown)
VH: QVQLVQSGAEVKKPGSSVKVSCKASGYTFTGYYMHWVRQAPGQGLEWMGRISPSDGSTTYAPKFQGRVTITADESTSTAYMELSSLRSEDTAVYYCARDMGDAFDIWGQGTTVTVSS
VL: not shown
notes: Fab made in HEK293

- fold selective binding, target pHLA vs minipool of negative control pHLAs [2]: ≥ 3 fold
B5: scFv G5-P4B02 (scFv, V domains shown)
VH: QVQLVQSGAEVKKPGASVKVSCKASGYTFTGYYMHWVRQAPGQGLEWMGWMNPNIGNTGYAQKFQGRVTMTRDTSTSTVYMELSSLRSEDTAVYYCARGIADSGSYYGNGRDYYYGMDVWGQGTTVTVSS
VL: DIVMTQSPDSLAVSLGERATINCKTSQSVLYRPNNENYLAWYQQKPGQPPKLLIYQASIREPGVPDRFSGSGSGTDFTLTISSLQAEDVAVYYCQQYYTTPYTFGQGTKLEIK
notes: scFv

From patent US20210061914A1 (published 2021)
